The data set in a line: soluble on expression in E. coli; label from the status in PepcDB or PDB records.
Regarding “MHHHHHHSSGVDLGTENLYFQSMGLSRVRAVFFDLDNTLIDTAGASRRGMLEVIKLLQSKYHYKEEAEIICDKVQVKLSKECFHPYNTCITDLRTSHWEEAIQETKGGAANRKLAEECYFLWKSTRLQHMTLAEDVKAMLTELRKEVRLLLLTNGDRQTQREKIEACACQSYFDAVVVGGEQREEKPAPSIFYYCCNLLGVQPGDCVMVGDTLETDIQGGLNAGLKATVWINKNGIVPLKSSPVPHYMVSSVLELPALLQSIDCKVSMST”, the “soluble on expression in E. coli” value is “soluble”.

With “MHHHHHHSSGVDLGTENLYFQSMKYILVTGGVISGIGKGIIASSVGTILKSCGLHVTSIKIDPYINIDAGTFSPYEHGEVFVLDDGGEVDLDLGNYERFLDIRLTKDNNLTTGKIYQYVINKERKGDYLGKTVQVVPHITDAIQEWVMRQALIPVDEDGLEPQVCVIELGGTVGDIESMPFIEAFRQFQFKVKRENFCNIHVSLVPQPSSTGEQKTKPTQNSVRELRGLGLSPDLVVCRCSNPLDTSVKEKISMFCHVEPEQVICVHDVSSIYRVPLLLEEQGVVDYFLRRLDLP”, the “soluble on expression in E. coli” value is reported as “soluble”.

On to “MHHHHHHSSGVDLGTENLYFQSMSVGFIGAGQLAFALAKGFTAAGVLAAHKIMASSPDMDLATVSALRKMGVKLTPHNKETVQHSDVLFLAVKPHIIPFILDEIGADIEDRHIVVSCAAGVTISSIEKKLSAFRPAPRVIRCMTNTPVVVREGATVYATGTHAQVEDGRLMEQLLSSVGFCTEVEEDLIDAVTGLSGSGPAYAFTALDALADGGVKMGLPRRLAVRLGAQALLGAAKMLLHSEQHPGQLKDNVSSPGGATIHALHVLESGGFRSLLINAVEASCIRTRELQSMADQEQVSPAAIKKTILDKVKLDSPAGTAL”, for which the “soluble on expression in E. coli” value was “soluble”.

Take “MHHHHHHSSGVDLGTENLYFQSNAMNDPKVIVALDYDNLADALAFVDKIDPSTCRLKVGKEMFTLFGPDFVRELHKRGFSVFLDLKFHDIPNTCSKAVKAAAELGVWMVNVHASGGERMMAASREILEPYGKERPLLIGVTVLTSMESADLQGIGILSAPQDHVLRLATLTKNAGLDGVVCSAQEASLLKQHLGREFKLVTPGIRPAGSEQGDQRRIMTPAQAIASGSDYLVIGRPITQAAHPEVVLEEINSSLV”: the “soluble on expression in E. coli” value is on record as “soluble”.

“MHHYRVSGWTLATEIPLPHLFPCSAPAGEAAADITLRQGPVPPPPVPLRLDRDGIQVGADGHTVIDIPNCVRIGLTGGRDIMVDPAPGASWPEIQTWLLGPGLGVICHQRGVLPLHACAIRTGKGGLAIVGNSGAGKSTTATALVQRGHRLLGDDVLVVDPDTGLAQPCFPMVKLWDSSRSALDIGQEGQQSVGGKIGKWHMPMLAAFDPVPRPLSAIVHLRADPAARRPVLTRWPRPHAAAVLDAMTYRVYLADALHGRRHVLSAATRLAAHVPVWELVRTADFADLAEMLDMLEGLAGALEHHHHHH”: the “soluble on expression in E. coli” value is given as “not soluble”.

For the sequence “MHIRRDQYMNEYVWETCEELDKKIADRVRLIRKRRSISQEKLSKISNVSLGSIKRFETTGQISLLSLTKIAVALNIADDLRNIFTEIPYNSIEEVINERR”, the “soluble on expression in E. coli” value was “not soluble”.

With “MHKLLYTCNLRCRMCPFWRRKDEKLLSLEEEVLMLKSLEKAGVLFMGFEGGEPLLRRDLEDILEESYKRFYTSLVTNGWLLKDRAKSISNYLDYLFVSIDGIGEVHDKIRGISGAFERAVEGIKEARKYLPVAISFTITKENMDQVKDVIELA”, the “soluble on expression in E. coli” value is “soluble”.

Consider “MHLRLRTKNGLITITVSQQCTIRELSEEIERKTGIEVAKQKILYGFPQRELRADADKPVESVLQSGDSLTVDKLSAETEQERTVESSPASTENAYVRRKVPDDNSCLFHAICYVFRSGSVAQLRHIISETVRLNPDLYTEAFLGKSNHEYSRWILLPETWGGAIELSILSKYFQTEISVFDIQTLRLDRYGEAENYEERVFLLYDGIHYDPIARAFLGASREYDVTVFKIWDNEALVGAKSVAEEANKNRQYTDLASFTLMCRNCGAKLKGETSAVEHAKQTGHTNFTEA”, for which the “soluble on expression in E. coli” value is “not soluble”.

As to “MHPALWVSKTGLDAQQTNIATISNNLANASTVGYKKSRAVFEDLFYQNINQPGGQSSQNTELPSGLMLGAGSKVVATQKVHTHGNAQTTTNALDMMVEGDGFFQVTLPDGNIGYTRNGQFTLNGEGTLVTSGSGYPVEPEIVI”, the “soluble on expression in E. coli” value is “not soluble”.

As for “MHPRETIRETFVALIKAAKTVAGDNVFNMRDFNLFIETMPAINISTQSETIEDGHDFGLRRRVLTVDVECYATCEDGARFVDQLAWEVEEIFYANPNLNNTVETCRLQNIAFAFGDNGSLALHGAILTFDVTHITNIPCPDEGKATVGVVEPLVGFKPETGMGNKDKYHKIEGDHVRATR”, the “soluble on expression in E. coli” value was “not soluble”.

As to “MHPRSKLSQAQRELAVDLFEEGYGSRAVANRLGVRREQVRHLEDRFRLHGRLCLVSKPTKKQYSFDTKMEILRRYRTGELKSDLAKEYGLSSPNLISHWVWQVNKGGSDALQPKPKGRPKGSGQSVPMTEEDTLRRENELLKAEVAYLKKLRDLREQRRG”, the “soluble on expression in E. coli” value is “not soluble”.

Turning to “MHSALWVSKTGMAAQDTKMTAISNNLANVNTVGFKRDRVVFEDLFYSIQRQPGAQVDQVNELPSGVQLGSGVRVVGTQKVFTQGNTQNTTQDLDLAVMGQGFFQIENSDGQIMYTRNGQFHINSEGLMVNSQGLPLEPQIQI”, the “soluble on expression in E. coli” value is “not soluble”.

As for “MHSKMDCVSRSPLFSPLAPAVKAKLITVTHHRKFYQKGQLIRQPLDHQEGMLILDEGTAKIYALAANGKEKIIELLRSGDVVGQHWLFAPHENQGFIQATSDAWVCSIQYDDFQRLLGESASLSLAMINNFGNQLIEAEKNQLRRDLLDAKARLMAYLRDCAVESGQIEFELPLKKKELANILGITPETLSRQFKQLAAEGQIIVNKRQITIC”, the “soluble on expression in E. coli” value is “not soluble”.

Consider “MHSLQNVIPQQQAHIAELQVYNNKLERDLQNKIGSLTSSIEWYLRSMELDPEIKADIEQQINSIDAINPLHAFDDLESVIRNLISDYDKLFLMFKGLIQRSNYQYSFGSE”, for which the “soluble on expression in E. coli” value is “soluble”.

As for “MHTDTTRENPQASAPQAADSSQDLAATAPGQLRVIKRNGTVVPYTDDKITVAITKAFLAVEGGTAAASSRIHDTVRRLTEQVTATFKRRMPSGGTIHIEEIQDQVELALMRAGEQKVARDYVIYREARAAERKNAGAASDVAQPHP”, the “soluble on expression in E. coli” value was “not soluble”.

For the sequence “MHTMHIPSGDVLIPKPKLITEETDPLHIIKTRQKTHGRPVTIAGPMVRYSKLPFRQLCREYNVDIVYSPMILAREYVRNEHARISDLSTNNEDTPLIVQVGVNNVADLLKFVEMVAPYCDGIGINCGCPIKEQIREGIGCALIYNSDLLCSMVHAVKDKYGDKLRIETKIRIHEALDETVELCRKLCDAGVDWITIHGRTRRTRSSQPANLDAIKYIIENISDKNVPVIANGDCFKLSDLERITKYTGAHGVMAVRGLLSNPALFAGYTTCPWGCIEKFCYWALEFGGLPFQLAQHHLYCMLENMELKKSLLKKMMNLKNYISLIDWFNKTFEFKRYGEDGFGMGVEIPYKANSCVQRSASVVERQE”, the “soluble on expression in E. coli” value is recorded as “soluble”.

In the case of “MHTPVTIIGAGLGGLTLARVLHVHAIPVTVYEADSSPSARAQGGLLDIHDYNGQLAVEAAGLTDEFRAIVLEGRQALRVLDPDGTVRLDRADDGTGGRPEVQRGDLRQILLDSLPAGTVRWGHKVSRARPLGDGRHEVTFADGGTVVTRLLVGADGAWSRVRPLLSSATPEYVGKSVVETYLFDAGTRHPVAAKTVGGGMLIAPAPGKEIFAHREKDDTLHAYVGLSRPLDWFAGIDFTDGAAATARIAREFDGWATELTALITDTDVAPALRALHALPAGHRWERVPGVTLLGDAAHLAAPNGEGANLAMLDGAELGTALAAHPGDVEAALAEYERAMFPRSAEAAGDDMIGMDSPDNTAQGLIDLITENGGLEHHHHHH”, the “soluble on expression in E. coli” value was “soluble”.

In the case of “MHTSELLKHIYDINLSYLLLAQRLIVQDKASAMFRLGINEEMATTLAALTLPQMVKLAETNQLVCHFRFDSHQTITQLTQDSRVDDLQQIHTGIMLSTRLLNDVNQPEEALRKKRA”, the “soluble on expression in E. coli” value is on record as “soluble”.

Regarding “MHVNGKVALVTGAAQGIGRAFAEALLLKGAKVALVDWNLEAGVQCKAALDEQFEPQKTLFIQCDVADQQQLRDTFRKVVDHFGRLDILVNNAGVNNEKNWEKTLQINLVSVISGTYLGLDYMSKQNGGEGGIIINMSSLAGLMPVAQQPVYCASKHGIVGFTRSAALAANLMNSGVRLNAICPGFVNTAILESIEKEENMGQYIEYKDHIKDMIKYYGILDPPLIANGLITLIEDDALNGAIMKITTSKGIHFQDYDTTPFQAKTQ”, the “soluble on expression in E. coli” value was “not soluble”.

In the case of “MIAELHIADDETAVKVLHLQRRAYTIEAQIIGSKALPPLHDTIASLQRCGERFFGYFQGERLVGAIACKRNGKTLRLCRLMVDPDCFRQGIASALLDFVIKQEPSISEIVVTTGSGNAPAIRFYERHGFRAIERIETPERIELTKLVKRSG”, the “soluble on expression in E. coli” value is given as “not soluble”.

Regarding “MIAIIDYGMGNIRSVEQALKYIGAAYIVTSDKEEIFRSDGVILPGVGAFPKAMDILEEKDLVRVLQEIGRSRKPLLGICLGMQLLFEKSEELQDCNGLSLLPGVIRKLKVPYKIPHMGWNELKKEGEIALWNGVEDGSFVYYVHSYYADCPNEIVYGISDYGVKVPGFVAKGNIYGAQFHPEKSGDIGMQMLKNFKGVVETWKSSQLSI”, the “soluble on expression in E. coli” value is given as “soluble”.

With “MIAPQPPMHLSGRCVCPSDPQFVEEKGIQAEDLVIGALENAFQECDDVIGRELEASGQVGGCTALVAVFLQGKLYVANAGDSRAILVRRHEIRQLSSEFTPETERQRIQQLAFTYPELLAGEFTRLEFPRRLKGDDLGQKVLFRDHHMRGWSYKRVEKSDLKYPLIHGQGRQARLLGTLAVSRGLGDHQLRVLDTDIQLKPFLLSIPQVTVLDVHQLAVQEEDVVVMATDGLWDVLSNEQVALLVRSFLTGNQKDDPHRFSELAKMLIHNTQGKDNGATGEGQVSYDDVSVFVIPLHSQAQEGSGH”, the “soluble on expression in E. coli” value is given as “soluble”.

For “MICLEKVEDIPRLQELFAQILIVHHQARSDVLKVKGSKFTDKELEGVIGDANKPVFVYEDEAGTILCHLFLIIKEVSENDGPQKPIKTLFIDDLCVEEKARGQKLGEKLYQFALDYATEQECYNATLHVWNDNQGTLDFYEHLGVKPRYTEMKTVLKLEHHHHHH”, the “soluble on expression in E. coli” value is “not soluble”.

As to “MICWGEQKRQADPGFFCRKIVEGVSQPIWLVSDTRRTSDIQWFQEAYGAVIQTVRVVASEQSRQQRGWVFTPGVDDAESECGLDNFGNFDWVIENHGDEQCLEDQLEHLLGFIQAKL”, the “soluble on expression in E. coli” value was “not soluble”.

On to “MIELSHEEELRYNRQIILKSVDFDGQEKLKASKMLIVGLGGLGCAASQYLAAAGVGNLTLLDFDTVSLSNLQRQVLHCDARLNMPKVESAKIALEQINPHINIETINAKLDEEKLAEIIPHFDIVLDCTDNVEIRNQLDRQCNHMKVPLISGAAIRMEGQVSVFTYEPNTPTYRDLSKLFRQNVLSCVEAGVLAPIVGIVGCIQALEAIKVRLKIGKNLCGRLLMIDGFSMNIREIKLPTNME”, for which the “soluble on expression in E. coli” value was “not soluble”.

Turning to “MIEQIGADSKSAENKQERKLYIETYGCQMNVADSEVVASVMQMDGYNLTDNVDEADTILVNTCSVRDNAEQKVLNRLAYYHSLRKKRRASSRLVIGVLGCMAERVKEELIREHHVDVVAGPDSYLDLPNLVGAAEQGEKAINVELSTQETYKDVMPLKMGGVHINGFVSIMRGCNNFCSYCIVPYTRGRERSREIESILNEVRDLKAKNFREVTLLGQNVNSYRYEQNGRIIRFPDLLAAVAEAVPDMRIRFTSPHPKDMDDEAIAVMARYRNICNHIHLPAQSGSDKMLRVMKRGYTRRWYLDRVAAIRRAIPDCAISSDLFCGFHSETEEDFEATLSLMEEVRYDSAFMFKYSERPGTYAARHLADDVPEEVKLSRLDRMIALQNRLSEESNKRDIGKTFEVLIEGFSKRSREQLFGRTQQNKVVIFDKNGHRVGQYIYVRIKDASSATLFGEVVETPTSE”, the “soluble on expression in E. coli” value is “not soluble”.

The record behind these values is the DeepSol protein solubility set.
